{"source": "patent US20260008815A1", "about": "“CYCLIC PEPTIDE OR SALT THEREOF, AND USES THEREOF” (FUJIFILM Corporation, priority 2023, published 2026)", "note": "Bridge positions count the residues as written; N and C are the ends. Ends that are not written are not given here. COCH2 = acetyl group that carries the bridge"}
{"molecular_target": "T1, Recombinant Human FGFR2 alpha (IIIc) Fc Chimera Protein (Homo sapiens, UniProt P21802)", "T1 construct": "Fc (chimera); purchased R&D systems 712-FR-050", "T1 sequence (P21802 with tags, fused parts or gaps limits assumed)": "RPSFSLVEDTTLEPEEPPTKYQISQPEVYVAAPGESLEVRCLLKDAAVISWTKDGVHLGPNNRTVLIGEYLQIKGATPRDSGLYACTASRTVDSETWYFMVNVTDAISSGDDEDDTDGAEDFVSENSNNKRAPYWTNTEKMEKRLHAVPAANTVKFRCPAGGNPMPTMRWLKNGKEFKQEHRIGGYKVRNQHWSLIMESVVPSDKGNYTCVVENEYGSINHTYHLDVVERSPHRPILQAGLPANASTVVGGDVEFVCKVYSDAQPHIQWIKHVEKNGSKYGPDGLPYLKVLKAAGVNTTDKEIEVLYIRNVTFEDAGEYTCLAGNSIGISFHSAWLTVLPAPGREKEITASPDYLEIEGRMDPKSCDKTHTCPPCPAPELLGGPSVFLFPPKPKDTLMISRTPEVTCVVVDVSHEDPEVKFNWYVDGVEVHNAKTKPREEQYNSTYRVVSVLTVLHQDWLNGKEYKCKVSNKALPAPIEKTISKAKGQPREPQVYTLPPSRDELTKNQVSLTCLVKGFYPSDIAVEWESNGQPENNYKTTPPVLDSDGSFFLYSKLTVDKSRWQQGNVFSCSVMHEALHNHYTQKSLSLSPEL", "experiment": "ELISA binding affinity of enzymatically synthesized peptide to FGFR", "conditions": "ELISA luminescence signal at 10 nmol/L peptide, SEQ ID NO: 47 at 10 nmol/L standardized to 1; enzyme synthesis product", "in_short": "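FGFR2 alpha (IIIc) Fc chimera (5 ng/well) was immobilized, and Myc-tagged peptide was bound 3 h at room temperature, then detected with anti-Myc antibody (2 h) and chemiluminescent substrate. Signal was corrected against FGFR-free wells. Score A–D was the luminescence at 10 nmol/L peptide, normalized to cyclic peptide SEQ ID NO: 47.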"}
{"substance": "206 (YCEENYHDPEQYQYFIYFK(COCH2)Y; thioether 2-19 (inferred)) [compound 206]", "Evaluation result of binding affinity to FGFR": "A (0.7 or more)"}
{"substance": "207 (YCEENYLGPEQYQYFIYFK(COCH2)Y; thioether 2-19 (inferred)) [compound 207]", "Evaluation result of binding affinity to FGFR": "A (0.7 or more)"}
{"substance": "208 (YCEENYLLPEQYQYFIYFK(COCH2)Y; thioether 2-19 (inferred)) [compound 208]", "Evaluation result of binding affinity to FGFR": "C (0.1 or more and less than 0.5)"}
{"substance": "209 (YCEENYLIPEQYQYFIYFK(COCH2)Y; thioether 2-19 (inferred)) [compound 209]", "Evaluation result of binding affinity to FGFR": "C (0.1 or more and less than 0.5)"}
{"substance": "210 (YCEENYLVPEQYQYFIYFK(COCH2)Y; thioether 2-19 (inferred)) [compound 210]", "Evaluation result of binding affinity to FGFR": "C (0.1 or more and less than 0.5)"}
{"substance": "211 (YCEENYLFPEQYQYFIYFK(COCH2)Y; thioether 2-19 (inferred)) [compound 211]", "Evaluation result of binding affinity to FGFR": "A (0.7 or more)"}
{"substance": "212 (YCEENYLYPEQYQYFIYFK(COCH2)Y; thioether 2-19 (inferred)) [compound 212]", "Evaluation result of binding affinity to FGFR": "A (0.7 or more)"}
{"substance": "213 (YCEENYLWPEQYQYFIYFK(COCH2)Y; thioether 2-19 (inferred)) [compound 213]", "Evaluation result of binding affinity to FGFR": "B (0.5 or more and less than 0.7)"}
{"substance": "214 (YCEENYLNPEQYQYFIYFK(COCH2)Y; thioether 2-19 (inferred)) [compound 214]", "Evaluation result of binding affinity to FGFR": "A (0.7 or more)"}
{"substance": "215 (YCEENYLQPEQYQYFIYFK(COCH2)Y; thioether 2-19 (inferred)) [compound 215]", "Evaluation result of binding affinity to FGFR": "A (0.7 or more)"}
{"substance": "216 (YCEENYLSPEQYQYFIYFK(COCH2)Y; thioether 2-19 (inferred)) [compound 216]", "Evaluation result of binding affinity to FGFR": "A (0.7 or more)"}
{"substance": "217 (YCEENYLTPEQYQYFIYFK(COCH2)Y; thioether 2-19 (inferred)) [compound 217]", "Evaluation result of binding affinity to FGFR": "A (0.7 or more)"}
{"substance": "218 (YCEENYLEPEQYQYFIYFK(COCH2)Y; thioether 2-19 (inferred)) [compound 218]", "Evaluation result of binding affinity to FGFR": "A (0.7 or more)"}
{"substance": "219 (YCEENYLRPEQYQYFIYFK(COCH2)Y; thioether 2-19 (inferred)) [compound 219]", "Evaluation result of binding affinity to FGFR": "C (0.1 or more and less than 0.5)"}
{"substance": "220 (YCEENYLHPEQYQYFIYFK(COCH2)Y; thioether 2-19 (inferred)) [compound 220]", "Evaluation result of binding affinity to FGFR": "A (0.7 or more)"}
{"substance": "221 (YCEENYLDGEQYQYFIYFK(COCH2)Y; thioether 2-19 (inferred)) [compound 221]", "Evaluation result of binding affinity to FGFR": "A (0.7 or more)"}
{"substance": "222 (YCEENYLDLEQYQYFIYFK(COCH2)Y; thioether 2-19 (inferred)) [compound 222]", "Evaluation result of binding affinity to FGFR": "A (0.7 or more)"}
{"substance": "223 (YCEENYLDIEQYQYFIYFK(COCH2)Y; thioether 2-19 (inferred)) [compound 223]", "Evaluation result of binding affinity to FGFR": "A (0.7 or more)"}
{"substance": "224 (YCEENYLDVEQYQYFIYFK(COCH2)Y; thioether 2-19 (inferred)) [compound 224]", "Evaluation result of binding affinity to FGFR": "A (0.7 or more)"}
{"substance": "225 (YCEENYLDFEQYQYFIYFK(COCH2)Y; thioether 2-19 (inferred)) [compound 225]", "Evaluation result of binding affinity to FGFR": "A (0.7 or more)"}
{"substance": "226 (YCEENYLDYEQYQYFIYFK(COCH2)Y; thioether 2-19 (inferred)) [compound 226]", "Evaluation result of binding affinity to FGFR": "A (0.7 or more)"}
{"substance": "227 (YCEENYLDWEQYQYFIYFK(COCH2)Y; thioether 2-19 (inferred)) [compound 227]", "Evaluation result of binding affinity to FGFR": "A (0.7 or more)"}
{"substance": "228 (YCEENYLDNEQYQYFIYFK(COCH2)Y; thioether 2-19 (inferred)) [compound 228]", "Evaluation result of binding affinity to FGFR": "A (0.7 or more)"}
{"substance": "229 (YCEENYLDQEQYQYFIYFK(COCH2)Y; thioether 2-19 (inferred)) [compound 229]", "Evaluation result of binding affinity to FGFR": "A (0.7 or more)"}
{"substance": "230 (YCEENYLDSEQYQYFIYFK(COCH2)Y; thioether 2-19 (inferred)) [compound 230]", "Evaluation result of binding affinity to FGFR": "A (0.7 or more)"}
{"substance": "231 (YCEENYLDTEQYQYFIYFK(COCH2)Y; thioether 2-19 (inferred)) [compound 231]", "Evaluation result of binding affinity to FGFR": "A (0.7 or more)"}
{"substance": "232 (YCEENYLDDEQYQYFIYFK(COCH2)Y; thioether 2-19 (inferred)) [compound 232]", "Evaluation result of binding affinity to FGFR": "A (0.7 or more)"}
{"substance": "233 (YCEENYLDEEQYQYFIYFK(COCH2)Y; thioether 2-19 (inferred)) [compound 233]", "Evaluation result of binding affinity to FGFR": "A (0.7 or more)"}
{"substance": "234 (YCEENYLDREQYQYFIYFK(COCH2)Y; thioether 2-19 (inferred)) [compound 234]", "Evaluation result of binding affinity to FGFR": "A (0.7 or more)"}
{"substance": "235 (YCEENYLDHEQYQYFIYFK(COCH2)Y; thioether 2-19 (inferred)) [compound 235]", "Evaluation result of binding affinity to FGFR": "A (0.7 or more)"}
{"substance": "236 (YCEENYLDPGQYQYFIYFK(COCH2)Y; thioether 2-19 (inferred)) [compound 236]", "Evaluation result of binding affinity to FGFR": "C (0.1 or more and less than 0.5)"}
{"substance": "237 (YCEENYLDPPQYQYFIYFK(COCH2)Y; thioether 2-19 (inferred)) [compound 237]", "Evaluation result of binding affinity to FGFR": "A (0.7 or more)"}
{"substance": "238 (YCEENYLDPLQYQYFIYFK(COCH2)Y; thioether 2-19 (inferred)) [compound 238]", "Evaluation result of binding affinity to FGFR": "A (0.7 or more)"}
{"substance": "239 (YCEENYLDPIQYQYFIYFK(COCH2)Y; thioether 2-19 (inferred)) [compound 239]", "Evaluation result of binding affinity to FGFR": "A (0.7 or more)"}
{"substance": "240 (YCEENYLDPVQYQYFIYFK(COCH2)Y; thioether 2-19 (inferred)) [compound 240]", "Evaluation result of binding affinity to FGFR": "A (0.7 or more)"}
{"substance": "241 (YCEENYLDPFQYQYFIYFK(COCH2)Y; thioether 2-19 (inferred)) [compound 241]", "Evaluation result of binding affinity to FGFR": "A (0.7 or more)"}
{"substance": "242 (YCEENYLDPYQYQYFIYFK(COCH2)Y; thioether 2-19 (inferred)) [compound 242]", "Evaluation result of binding affinity to FGFR": "A (0.7 or more)"}
{"substance": "243 (YCEENYLDPWQYQYFIYFK(COCH2)Y; thioether 2-19 (inferred)) [compound 243]", "Evaluation result of binding affinity to FGFR": "A (0.7 or more)"}
{"substance": "244 (YCEENYLDPNQYQYFIYFK(COCH2)Y; thioether 2-19 (inferred)) [compound 244]", "Evaluation result of binding affinity to FGFR": "A (0.7 or more)"}
{"substance": "245 (YCEENYLDPQQYQYFIYFK(COCH2)Y; thioether 2-19 (inferred)) [compound 245]", "Evaluation result of binding affinity to FGFR": "A (0.7 or more)"}
{"substance": "246 (YCEENYLDPSQYQYFIYFK(COCH2)Y; thioether 2-19 (inferred)) [compound 246]", "Evaluation result of binding affinity to FGFR": "A (0.7 or more)"}
{"substance": "247 (YCEENYLDPTQYQYFIYFK(COCH2)Y; thioether 2-19 (inferred)) [compound 247]", "Evaluation result of binding affinity to FGFR": "A (0.7 or more)"}
{"substance": "248 (YCEENYLDPDQYQYFIYFK(COCH2)Y; thioether 2-19 (inferred)) [compound 248]", "Evaluation result of binding affinity to FGFR": "A (0.7 or more)"}
{"substance": "249 (YCEENYLDPRQYQYFIYFK(COCH2)Y; thioether 2-19 (inferred)) [compound 249]", "Evaluation result of binding affinity to FGFR": "A (0.7 or more)"}
{"substance": "250 (YCEENYLDPHQYQYFIYFK(COCH2)Y; thioether 2-19 (inferred)) [compound 250]", "Evaluation result of binding affinity to FGFR": "A (0.7 or more)"}
{"substance": "251 (YCEENYLDPEHYQYFIYFK(COCH2)Y; thioether 2-19 (inferred)) [compound 251]", "Evaluation result of binding affinity to FGFR": "C (0.1 or more and less than 0.5)"}
{"substance": "252 (YCEENYLDPEQLQYFIYFK(COCH2)Y; thioether 2-19 (inferred)) [compound 252]", "Evaluation result of binding affinity to FGFR": "C (0.1 or more and less than 0.5)"}
{"substance": "253 (YCEENYLDPEQIQYFIYFK(COCH2)Y; thioether 2-19 (inferred)) [compound 253]", "Evaluation result of binding affinity to FGFR": "C (0.1 or more and less than 0.5)"}
{"substance": "254 (YCEENYLDPEQFQYFIYFK(COCH2)Y; thioether 2-19 (inferred)) [compound 254]", "Evaluation result of binding affinity to FGFR": "A (0.7 or more)"}
{"substance": "255 (YCEENYLDPEQWQYFIYFK(COCH2)Y; thioether 2-19 (inferred)) [compound 255]", "Evaluation result of binding affinity to FGFR": "A (0.7 or more)"}
{"substance": "256 (YCEENYLDPEQHQYFIYFK(COCH2)Y; thioether 2-19 (inferred)) [compound 256]", "Evaluation result of binding affinity to FGFR": "A (0.7 or more)"}
{"substance": "257 (YCEENYLDPEQYGYFIYFK(COCH2)Y; thioether 2-19 (inferred)) [compound 257]", "Evaluation result of binding affinity to FGFR": "A (0.7 or more)"}
{"substance": "258 (YCEENYLDPEQYLYFIYFK(COCH2)Y; thioether 2-19 (inferred)) [compound 258]", "Evaluation result of binding affinity to FGFR": "A (0.7 or more)"}
{"substance": "259 (YCEENYLDPEQYIYFIYFK(COCH2)Y; thioether 2-19 (inferred)) [compound 259]", "Evaluation result of binding affinity to FGFR": "A (0.7 or more)"}
